Assay: yeast display, Sf9 membrane polyspecificity reagent, FACS + sequencing; frameworks hold sequencing errors
Summary of the method: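 In a synthetic yeast display library (Saccharomyces cerevisiae BJ5465), nanobody expression was induced with galactose for 36–48 hours. FACS gates were set low and high (top ~1%) using anti-HA fluorescence for expression and streptavidin fluorescence for binding of the Sf9 membrane reagent. Each polyreactivity label is drawn from the gate of origin.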

Sequence	polyreactivity (PSR sort gate)
QVQLVESGGGLVQAGGSLRLSCAASGSTISYYAMGWYRQAPGKERELVAAITRSGGSTYYADSVKGRFTISRDNAKNTFYLQMNSLKPEDTAVYYCAKGWRYFVGWGQRSRYYFWGQGTQVTVSS	high polyreactivity
QVQLVESGGGLVQAGGSLRLSCAASGSTITDYDMGWYRQAPGKERELVAAITSGGSTNYADSVKGRFTISRDNAKNTVYLQMNSLKPEDTAVYYCAAADADRKYDYWGQGTQVTVSS	low polyreactivity
QVQLVESGGGLVQAGGSLRLSCAASGSTITDYTMGWYRQAPGKERELVAVISQSGGSTYYADSVKGRFTISRDNAKNTVYLQMNSLKPEDTAVYYCAARTYWRGYRGQKYDYWGQGTQVTVSS	high polyreactivity
QVQLVESGGGLVQAGGSLRLSCAASGSTIVSYDMGWYRPAPGKDRELVAAITYDGDSTYYADSVKGRFTISRDNAKNTVYLQMNSLKPEDTAVYYCAAEPGDDLKFRGGFEYWGQGTQVTVSS	low polyreactivity
QVQLVESGGGLVQAGGSLRLSCAASGSTIYKYAMGWYRQAPGKERELVAAISGSGGRTYYADSVKGRFTISRDNAKNTVYLQMNSLKPEDTAVYYCAARPKGGPWEHDYWGQGTQVTVSS	high polyreactivity
QVQLVESGGGLVQAGGSLRLSCAASGSTIYPYAMGWYRQAPGKERELVASISGGGSTYYADSVKGRFTISRDNAKNTVYLQMNSLKPEDTAVYYCNAEFDLYWYRYYYWGQGTQVTVSS	high polyreactivity
QVQLVESGGGLVQAGGSLRLSCAASGSTIYSYAMGWYRQAPGKERELVAAISWSGARTYYADSVKGRFTISRDIAKNTVYLQMNSLKPEDTAVYYCAASGYYSSHMDYWGQGTQVTVSS	high polyreactivity
QVQLVESGGGLVQAGGSLRLSCAASGSTIYTYALGWYRQAPGKERELVAAIRGRGGRTYYADSVKGRFTISRDNAKNTVYLQMNSLKPEDTAVYYCNADGYAYYRATTRFDYWGQGTQVTVSS	high polyreactivity
QVQLVESGGGLVQAGGSLRLSCAASGSTIYVKAMGWYRQAPGKEREFVAAITWNSGSTYYADSVKGRFTISRDNAKKTVYLQINSLKPEDTAVYYCAAVLSVLVYGYVYWGQGTQVTVSS	low polyreactivity
QVQLVESGGGLVQAGGSLRLSCAASGSTIYVYAMGWYRHPPGKERELVAAISTAGGRTSYADSVKGRFTISRDNAQNTVYLQMNSLKPEDTAVYYCAARSTLYRSIRYDYWGQGTQVTVSS	high polyreactivity
QVQLVESGGGLVQAGGSLRLSCAASGSTLAGYAMGWYRQAPGKERELVATISWSDGSTSYADSVKGRFTFSRDNAKNTVYLQLNSLKPEDTAVSYCAADAITNYDGRKSRRSYSAYDYWGQGTQVTVSS	low polyreactivity
QVQLVESGGGLVQAGGSLRLSCAASGSTLAQYAMGWYRQAPGKERELVAAISRRGASTYYADSVKGRFTISRDNAKNTGYLQMNSLKPEDTAVYYCNAVRGEKMGYWGQGTQVTVSS	high polyreactivity
QVQLVESGGGLVQAGGSLRLSCAASGSTLASYAMGWYKQAPGKERELVAAISRGGGSTFYADSVKGRFTISRDNAKNTVYLQMNSLKPEDTAVYYCAAFGRYYYIYDYWGQGTQVTVSS	high polyreactivity
QVQLVESGGGLVQAGGSLRLSCAASGSTLAYNAMGWYRQAPGKERELVAAISSNGDSTYYADSVKGRFTISRDNAKNTVYLQMNSLKPEDTAVYYCAAGYYSRYYEAFEYYYWGQGTQVTVSS	high polyreactivity
QVQLVESGGGLVQAGGSLRLSCAASGSTLDGNAMGWYRQAPGKERELVAAISVSGGSTYYADSVKGRFTISRDNAKNTVYLQMNSLKPEDPAVYYCSTEWRPRYYGTEPFDSWGQGTQVTVSS	high polyreactivity
QVQLVESGGGLVQAGGSLRLSCAASGSTLESYAMGWYRQAPGKERELVAAISKSGGRTYYADSVKGRFTISRDNAKNTLYLQMNSLKPEDTAVYYCAADSGTHLTYYWGQGTQVTVSS	high polyreactivity
QVQLVESGGGLVQAGGSLRLSCAASGSTLFWNAIGWYRQAPGKERELVAVISFSGVSTYYADSVKGRFTISRDNAKNTVYLQMNSLKPEDTAVYYCAAEVPHWPYYGRLHDRDYWGQGTQVTVSS	low polyreactivity
QVQLVESGGGLVQAGGSLRLSCAASGSTLGAYAMGWSRQAPGKERELVAAISRSGGNTYYADSVKGRFTISRDNAKNTVYLQMNSLKPDDTAVYYCAAVRLYRYDYWGQGTQVTVSS	low polyreactivity
QVQLVESGGGLVQAGGSLRLSCAASGSTLGVYAMGWYRQAPGKERELVAAISSGGSTTYADSVKGRFTISRDNAKNTDYLQMNSLKPEDTAVYYCAATNVRGVYYWGQGTQVTVSS	high polyreactivity
QVQLVESGGGLVQAGGSLRLSCAASGSTLGYYVMGWYRQAPGKERELVAAITGGGSTDYADSVKGRFTISRDNAKNTVYLQMNSLIPEDTAVYYCAAERTRTGQLFWWGPIYDYWGQGTQVTVSS	low polyreactivity
QVQLVESGGGLVQAGGSLRLSCAASGSTLHLYAMGWYRQAPGKERELVADITSGGDTYYADSVKGRFTISRDNAKNTVYLQMNSLKPEDTAVYYCNAVYEGRYEYAYYYRYDYWGQGTQVTLSS	high polyreactivity
QVQLVESGGGLVQAGGSLRLSCAASGSTLLANAMGWYRQAPGKERELVAASTYYADSVKGRFTISRDNAKNTVYLQMNSLKPEDTAVYYCAADTVRGGPDGIEYNYWGQGTQVTVSS	low polyreactivity

Sequence	polyreactivity (PSR sort gate)
QVQLVESGGGLVQAGGSLRLSCAASGSTLLYYAKGWYRQAPGKERELVAAISWRGGSTYYADSVKGRFTISRDNAKYTVYLQMNSLKPEDTAVYYCAARSLRLVGPYYYWGQGTQVTVSS	high polyreactivity
QVQLVESGGGLVQAGGSLRLSCAASGSTLNRNAMGWYRQAPGKERDLVAAIRVSGGSTYYADSVKGRFTISRDNAKNTVYLQMNSLKPEDTAVYYCATRYVRARWYGYWGQGTQVTVSS	high polyreactivity
QVQLVESGGGLVQAGGSLRLSCAASGSTLNSYVMGWYRQAPGKERELVATIRSGSSTNYADSVKGRFTISRDNAKNTVYLQMNSLKPEDTAVYYCAGDAYSLCYDSWGQGTQVTVSS	low polyreactivity
QVQLVESGGGLVQAGGSLRLSCAASGSTLNVNAMGWYRQAPGKERELVAAITSGGSTYYADSVKGRFTISRDNEKNTVYLQIHSLKPEDTAVYYCNKRRSWRPTYPIGGSGFYYWGQGTQVTVSS	low polyreactivity
QVQLVESGGGLVQAGGSLRLSCAASGSTLPGNVMAWYRQAPGKERELVAAISKRGASTYYADSVKGRFTISRDNAKNTVYLQMNSLKPEDTAVYYCATRTRGSVFRFDYWGQGTQVTVSS	high polyreactivity
QVQLVESGGGLVQAGGSLRLSCAASGSTLPNNAMGWYRQAPGKERELVAAISWRGTRTYYADSVKGRFTISRDNAKNTVYLQMNSLKPEDTAVYYCAAGGVGAYDYWGQGTEVTVSS	high polyreactivity
QVQLVESGGGLVQAGGSLRLSCAASGSTLPRYAMGWYRQAPGKEREFVAAMTWRGGSTYYADSVKGRFTISRDNAKNTVYLQMNSLKPEDTAVYYCNTHRNGGSHRRYNYWGQGTQVTVSS	high polyreactivity
QVQLVESGGGLVQAGGSLRLSCAASGSTLPVNAMGWYRQAPGKERELVAAINRDGSTNYADSVKRPFTISRDNAKNNVYLQMNCLKPDDTAVYYCGADGFGYPGKRYDYWGHGTQVTVSS	low polyreactivity
QVQLVESGGGLVQAGGSLRLSCAASGSTLQINGMGGYRQAPGKERELVAAISIGGDTNYADSVKGRFTISRDNAKNTEMNSLKTEDTAVYYCNTDYFGSLVVVIFDYWGQGTQVTVSS	low polyreactivity
QVQLVESGGGLVQAGGSLRLSCAASGSTLQINGMGWYRQAPGKERELVAAISIGSDTNYADSVKGRFTISRDNAKNTEMNSLKPEDTAVYYCAAQRRYHQDTTIGPGNYYYWGQGTQVTVSS	low polyreactivity
QVQLVESGGGLVQAGGSLRLSCAASGSTLQVNAMGWYRQAPGNERELVATISFSGGSTYYADSVKGRFTISRDNAKYTVYLQMNSLKPEDTAVYYCNADSFVSWYNQFWYQATYDYWGQGTEVTVSS	low polyreactivity
QVQLVESGGGLVQAGGSLRLSCAASGSTLQVYAMGWYREAPGKERELVAAISKSGGRTYYADSVKGRFSISRDNAKNTFYLQMNSLKPEDTAVYYCAADVGTAQSTYGYWGQGTQVTVSS	high polyreactivity
QVQLVESGGGLVQAGGSLRLSCAASGSTLRRYAMGWYRQAPGKERELVAAISGTGSRTYYADSVKGRFTISRDNAKNTVYLQMNSLKPEDTAVYYCNASPYRLTENDYWGQGTQVTVSS	high polyreactivity
QVQLVESGGGLVQAGGSLRLSCAASGSTLRRYAMGWYRQAPGKERELVAINSSGGITYYADSVKGRVTISRDNAKNTVYLQMNSLKPEDTAVYYCNARRPAPGYGYDYWGQGTQVTVSS	low polyreactivity
QVQLVESGGGLVQAGGSLRLSCAASGSTLRRYAMGWYRQAPGTERELVASNSRGGTSTYYADSVKGRFTISRDNAKNTVYLQMKSLKPEDTAVYYCAAATPYRYNYWGQGTQVTVSS	high polyreactivity
QVQLVESGGGLVQAGGSLRLSCAASGSTLSDYVMGWYRQAPGKERELVAAITSGGSTSYADSVKGRFTISRDNAKNTVYLQMNSLKPEDTAVYYCNATLLFPLLYGPESGEFDYWGQGTQVTVSS	low polyreactivity
QVQLVESGGGLVQAGGSLRLSCAASGSTLSGNAMGWYRQAPGKERELVAAIRWSGDITYYADSVKGRFTISRDNAKNTVYLQMNSLKPEDTAVYYCAATLGNRWFHYNYWGQGTQVTVSS	low polyreactivity
QVQLVESGGGLVQAGGSLRLSCAASGSTLSKYAMGWYRQAPGKERELVAAISQRGGSTYYADSVKGRFTISRDNAKNTVYLQMNSLKPEDTAVYYCNALQRRYGYWGQGTQVTVSS	high polyreactivity
QVQLVESGGGLVQAGGSLRLSCAASGSTLSKYGMGWYRQAPGKERDLVAAISYSSGSTYYADSVKGRFTISRDNAKNTVYLEMNSLKPEDTAVDYCAADRFRSLHYWTYDYWGQGTQVTVSS	high polyreactivity
QVQLVESGGGLVQAGGSLRLSCAASGSTLSVNAMGWYRQAPGKERELVAAIDFDGGDTYYADSVKGRFTISRDNAKNTVYLQMKSLKPEDTAVYFCAADIGGQYDYLADDYWGQGNQVTVSS	low polyreactivity
QVQLVESGGGLVQAGGSLRLSCAASGSTLSVNAMGWYRQAPGKERELVAAIDFDGGDTYYADSVKGRFTISRDNAKNTVYLQMNSLKPEDTAVYYCAADIGGQYDYLADDYWGQGTQVTVSS	low polyreactivity

Reference: the nanobody polyreactivity screen of Harvey et al. (2022)
